According to PMC8554075:
pKd: −log10 of the molar value.

Molecular target: unmutated common ancestor of the AB-3467 clonal lineage, expressed as human IgG1 (human V(D)J (Ig-humanized TRIANNI mouse))
Assay: BLI

## SARS-CoV-2 receptor-binding domain (from UniProt P0DTC2 333-528) (domain or fragment)
  pKd: 6.30
